Consider one molecule from publication PMC5171582, “Translational regulation of APOBEC3G mRNA by Vif requires its 5′UTR and contributes to restoring HIV-1 infectivity” (Scientific Reports, 2016).

In the assay the target is T1, HA-tagged APOBEC3G (human, UniProt Q9HC16 1-384).
T1 construct: APOBEC3G (A3G), human cytidine deaminase, expressed from pA3G-HA; The plasmid pA3G-HA is not described in the Plasmids section; also called A3G-HA; A3G; source: HEK 293T, transfected (pA3G-HA), in lysate
The experiment in a line: co-IP; HEK 293T cells co-transfected with pA3G-HA and wild-type or mutant Vif plasmids; lysed in RIPA 1X 24 h post-transfection; anti-HA antibody 2 h at 4 °C, protein A Dynabeads 1.5 h at 4 °C, 5 washes with cold RIPA; western blot with anti-Vif. The following applies: partners not purified. (In general: Immunoblotting shows a protein as a band on a membrane.)

T1 sequence (Q9HC16 whole entry): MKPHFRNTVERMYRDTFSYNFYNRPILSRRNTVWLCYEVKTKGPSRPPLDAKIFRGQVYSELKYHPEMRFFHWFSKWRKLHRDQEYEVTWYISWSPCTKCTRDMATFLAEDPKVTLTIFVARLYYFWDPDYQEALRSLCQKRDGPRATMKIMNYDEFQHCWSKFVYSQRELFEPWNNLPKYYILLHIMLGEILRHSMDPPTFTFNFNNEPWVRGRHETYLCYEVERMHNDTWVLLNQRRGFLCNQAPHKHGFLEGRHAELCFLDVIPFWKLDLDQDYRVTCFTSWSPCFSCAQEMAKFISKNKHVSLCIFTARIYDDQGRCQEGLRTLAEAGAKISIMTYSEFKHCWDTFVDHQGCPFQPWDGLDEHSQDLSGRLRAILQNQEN

B1: Vif H42/43N (natural protein)
chain: not shown
notes: Vif of HIV-1 NL4.3 (codon-optimized pcDNAhVif) with the mutations H42N and H43N; also called H42/H43-N; Vif mutant H42/43N; source: HEK 293T, transfected (pcDNAhVif mutant), in lysate
For B1, the “fold decrease of binding against wild-type Vif” value was approximately 2 fold.
